Assay results from patent publication US20230140293A1.

Key:
Assay in all cases: cell-based or functional assay
[1] = molecular target: CH0505TF.G458Y Env, Env-pseudotyped virus produced in 293S GnTI- cells (Man5-enriched) (HIV-1)
[2] = molecular target: HIV-1 Env 426c.TM4 (S278R.G471S.N460D.N463D), Env-pseudotyped virus produced in 293S GnTI- cells (Man5-enriched) (HIV-1 clade C strain 426c)
[3] = molecular target: HIV-1 Env 426c.DM (N460D.N463D), Env-pseudotyped virus produced in 293S GnTI- cells (Man5-enriched) (HIV-1 clade C strain 426c)
[4] = molecular target: HIV-1 Env 426c, Env-pseudotyped virus produced in 293T cells (HIV-1 clade C strain 426c)
[5] = molecular target: CH0505.w4.3 Env, Env-pseudotyped virus produced in 293T cells (HIV-1)
[6] = molecular target: HIV-1 Env 426c.SM (N276D), Env-pseudotyped virus produced in 293T cells (HIV-1 clade C strain 426c)
[7] = molecular target: HIV-1 Env 426c.TM4 (S278R.G471S.N460D.N463D), Env-pseudotyped virus produced in 293T cells (HIV-1 clade C strain 426c)
[8] = molecular target: HIV-1 Env 426c.SM (N276D), Env-pseudotyped virus produced in 293S GnTI- cells (Man5-enriched) (HIV-1 clade C strain 426c)
[9] = molecular target: CH0505TF.gly3.197 Env, Env-pseudotyped virus produced in 293T cells (HIV-1)
[10] = molecular target: CH0505TF.gly3.276 Env, Env-pseudotyped virus produced in 293S GnTI- cells (Man5-enriched) (HIV-1)
[11] = molecular target: CH0505TF.gly4 Env, Env-pseudotyped virus produced in 293S GnTI- cells (Man5-enriched) (HIV-1)
[12] = molecular target: HIV-1 426c.DM (N460D/N463D) Env on Env-pseudotyped virus produced in 293s/GnTI-/- cells (Man5-enrichment) (HIV-1)
[13] = molecular target: HIV-1 clade C strain 426c Env on Env-pseudotyped virus produced in 293s/GnTI-/- cells (Man5-enrichment) (HIV-1)
[14] = molecular target: HIV-1 clade C strain 426c Env on Env-pseudotyped virus produced in 293T cells (HIV-1)
[15] = molecular target: CH0505TF.gly4 Env, Env-pseudotyped virus produced in 293T cells (HIV-1)
[16] = molecular target: HIV-1 426c.SM (N276D) Env on Env-pseudotyped virus produced in 293T cells (HIV-1)
[17] = molecular target: CH0505TF.gly3.461 Env, Env-pseudotyped virus produced in 293S GnTI- cells (Man5-enriched) (HIV-1)
[18] = molecular target: CH0505TF.gly3.197 Env, Env-pseudotyped virus produced in 293S GnTI- cells (Man5-enriched) (HIV-1)
[19] = molecular target: HIV-1 426c.DM (N460D/N463D) Env on Env-pseudotyped virus produced in 293T cells (HIV-1)
[20] = molecular target: CH0505TF Env, Env-pseudotyped virus produced in 293T cells (HIV-1)
[21] = molecular target: HIV-1 426c.SM (N276D) Env on Env-pseudotyped virus produced in 293s/GnTI-/- cells (Man5-enrichment) (HIV-1)
[22] = molecular target: CH0505TF.gly3.276 Env, Env-pseudotyped virus produced in 293T cells (HIV-1)
[23] = molecular target: HIV-1 Env 426c.TM (N276D.N460D.N463D), Env-pseudotyped virus produced in 293T cells (HIV-1 clade C strain 426c)
[24] = molecular target: HIV-1 426c.TM (N276D/N460D/N463D) Env on Env-pseudotyped virus produced in 293T cells (HIV-1)
[25] = molecular target: CH0505TF.G458Y Env, Env-pseudotyped virus produced in 293T cells (HIV-1)
[26] = molecular target: HIV-1 Env 426c, Env-pseudotyped virus produced in 293S GnTI- cells (Man5-enriched) (HIV-1 clade C strain 426c)
[27] = molecular target: HIV-1 426c.TM (N276D/N460D/N463D) Env on Env-pseudotyped virus produced in 293s/GnTI-/- cells (Man5-enrichment) (HIV-1)
[28] = molecular target: CH0505TF.gly3.461 Env, Env-pseudotyped virus produced in 293T cells (HIV-1)
[29] = molecular target: CH0505TF Env, Env-pseudotyped virus produced in 293S GnTI- cells (Man5-enriched) (HIV-1)
[30] = molecular target: HIV-1 Env 426c.DM (N460D.N463D), Env-pseudotyped virus produced in 293T cells (HIV-1 clade C strain 426c)
[31] = molecular target: HIV-1 Env 426c.TM (N276D.N460D.N463D), Env-pseudotyped virus produced in 293S GnTI- cells (Man5-enriched) (HIV-1 clade C strain 426c)

Substance	IC50 (µg/ml) in TZM-bl [1]	IC50 (µg/ml) in TZM-bl [2]	IC50 (µg/ml) in TZM-bl [3]	IC50 (µg/ml) in TZM-bl [4]	IC50 (µg/ml) in TZM-bl [5]	IC50 (µg/ml) in TZM-bl [6]	IC50 (µg/ml) in TZM-bl [7]	IC50 (µg/ml) in TZM-bl [8]	IC50 (µg/ml) in TZM-bl [9]	IC50 (µg/ml) in TZM-bl [10]	IC50 (µg/ml) in TZM-bl [11]	ID50/IC50 in TZM-bl [12]	ID50/IC50 in TZM-bl [13]	ID50/IC50 in TZM-bl [14]	IC50 (µg/ml) in TZM-bl [15]	ID50/IC50 in TZM-bl [16]	IC50 (µg/ml) in TZM-bl [17]	IC50 (µg/ml) in TZM-bl [18]	ID50/IC50 in TZM-bl [19]	IC50 (µg/ml) in TZM-bl [20]	further results
CH01 (antibody)	0.1 µg/mL	> 25 µg/mL	> 25 µg/mL	> 25 µg/mL	> 20 µg/mL	> 25 µg/mL	> 25 µg/mL	> 25 µg/mL	3.8 µg/mL	1 µg/mL	0.1 µg/mL	> 25 µg/mL	> 25 µg/mL	> 25 µg/mL	8.8 µg/mL	> 25 µg/mL	0.09 µg/mL	0.22 µg/mL	> 25 µg/mL	4.1 µg/mL	ID50/IC50 in TZM-bl [21]: > 25 µg/mL; IC50 (µg/ml) in TZM-bl [22]: 5.7 µg/mL; IC50 (µg/ml) in TZM-bl [23]: > 25 µg/mL; ID50/IC50 in TZM-bl [24]: > 25 µg/mL; IC50 (µg/ml) in TZM-bl [25]: 1 µg/mL; IC50 (µg/ml) in TZM-bl [26]: > 25 µg/mL; ID50/IC50 in TZM-bl [27]: > 25 µg/mL; IC50 (µg/ml) in TZM-bl [28]: 7.7 µg/mL; IC50 (µg/ml) in TZM-bl [29]: 0.8 µg/mL; IC50 (µg/ml) in TZM-bl [30]: > 25 µg/mL; IC50 (µg/ml) in TZM-bl [31]: > 25 µg/mL
DH511.2_K3 (antibody)	1.2 µg/mL	0.56 µg/mL	0.75 µg/mL	0.8 µg/mL	0.02 µg/mL	0.77 µg/mL	0.56 µg/mL	0.87 µg/mL	3.1 µg/mL	1.7 µg/mL	1.1 µg/mL	0.75 µg/mL	0.85 µg/mL	0.8 µg/mL	2.1 µg/mL	0.77 µg/mL	1.6 µg/mL	2.5 µg/mL	1.5 µg/mL	3.4 µg/mL	ID50/IC50 in TZM-bl [21]: 0.87 µg/mL; IC50 (µg/ml) in TZM-bl [22]: 2.9 µg/mL; IC50 (µg/ml) in TZM-bl [23]: 1.06 µg/mL; ID50/IC50 in TZM-bl [24]: 1.06 µg/mL; IC50 (µg/ml) in TZM-bl [25]: 0.6 µg/mL; IC50 (µg/ml) in TZM-bl [26]: 0.85 µg/mL; ID50/IC50 in TZM-bl [27]: 1.2 µg/mL; IC50 (µg/ml) in TZM-bl [28]: 2.8 µg/mL; IC50 (µg/ml) in TZM-bl [29]: 0.95 µg/mL; IC50 (µg/ml) in TZM-bl [30]: 1.5 µg/mL; IC50 (µg/ml) in TZM-bl [31]: 1.2 µg/mL
